# Molecular target: His-GST-NR4A1 (Mus musculus, UniProt P12813 1-601)
# Test: EMSA; glutaraldehyde 0.2% added after binding; 10 mM HEPES pH 7.6, 50 mM KCl, 1 mM EDTA, 0.05% Triton X-100, 5% glycerol, 1 mM DTT, 40 U/ml RNasin; REMSA: 2 nM probe, room temperature 30 min; pull-down: 50 pmol probe, 250 ug extract, 4 C 3 h
# Settings: protein: recombinant; tags: His-GST; label: 5' biotin; single strand
# His-GST-NR4A1, sequence (P12813 whole entry): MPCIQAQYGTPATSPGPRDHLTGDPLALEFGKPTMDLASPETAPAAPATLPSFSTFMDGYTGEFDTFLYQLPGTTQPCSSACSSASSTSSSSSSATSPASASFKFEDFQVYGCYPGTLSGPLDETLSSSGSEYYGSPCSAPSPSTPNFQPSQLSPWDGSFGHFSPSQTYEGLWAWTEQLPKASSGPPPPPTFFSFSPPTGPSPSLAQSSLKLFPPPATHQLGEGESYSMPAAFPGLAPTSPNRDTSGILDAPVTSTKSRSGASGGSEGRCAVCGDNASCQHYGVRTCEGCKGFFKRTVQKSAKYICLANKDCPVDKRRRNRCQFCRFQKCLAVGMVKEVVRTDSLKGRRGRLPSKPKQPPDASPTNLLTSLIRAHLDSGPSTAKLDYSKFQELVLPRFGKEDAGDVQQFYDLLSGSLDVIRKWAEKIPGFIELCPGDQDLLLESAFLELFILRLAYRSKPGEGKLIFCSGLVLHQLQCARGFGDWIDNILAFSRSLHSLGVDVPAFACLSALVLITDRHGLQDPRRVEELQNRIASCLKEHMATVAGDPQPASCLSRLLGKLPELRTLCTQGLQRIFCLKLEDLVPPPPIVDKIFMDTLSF
binder,measurement,value
"CGUCUCGGACUCGGACUGCU (ssRNA, m6A at positions 9 and 15 (as printed: CGUCUCGG(m6A)CUCGG(m6A)CUGCU)) [GGACU probe, m6A]",binding result,binds

# Reference: article PMC10365314, “Noncanonical contribution of microglial transcription factor NR4A1 to post-stroke recovery through TNF mRNA destabilization”
